Experimental data taken from the supplement of paper PMC9112550, “Optimization of the antimicrobial peptide Bac7 by deep mutational scanning” (BMC Biology, 2022).

Tested on: Escherichia coli TOP10
Experiment: shrunken log2 fold change of peptide-encoding DNA abundance (4.5 h post-induction vs induction); higher = less antimicrobial activity (less host growth inhibition)
Settings: time post-induction: 4.5 h; library: site-saturation at positions 5, 18, 19, 20
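Also: peptides expressed intracellularly from a pBAD plasmid library in pooled LB shake-flask culture, induced with 0.3% L-arabinose, DNA abundance read by NGS, three biological replicates, DESeq2 with apeglm shrinkage.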

In order of falling “shrunken log2 fold change” value:
1. RRIRGRPPRLPRPRPRPTPDPRP  1.24
2. RRIRCRPPRLPRPRPRPMRVPRP  0.839
3. RRIRDRPPRLPRPRPRPPREPRP  0.837
4. RRIRPRPPRLPRPRPRPPRGPRP  0.811
5. RRIRMRPPRLPRPRPRPNIWPRP  0.785
6. RRIRKRPPRLPRPRPRPKFAPRP  0.764
7. RRIRMRPPRLPRPRPRPVSQPRP  0.712
8. RRIRKRPPRLPRPRPRPDNEPRP  0.665
9. RRIRGRPPRLPRPRPRPHSTPRP  0.517
10. RRIRWRPPRLPRPRPRPKEIPRP  0.487
11. RRIRPRPPRLPRPRPRPPQPPRP  0.441
12. RRIRARPPRLPRPRPRPELYPRP  0.428
13. RRIRLRPPRLPRPRPRPRAQPRP  0.423
14. RRIRCRPPRLPRPRPRPPFDPRP  0.415
15. RRIRVRPPRLPRPRPRPTQDPRP  0.386
16. RRIRARPPRLPRPRPRPKWSPRP  0.354
17. RRIRKRPPRLPRPRPRPHPWPRP  0.353
18. RRIRQRPPRLPRPRPRPRGEPRP  0.348
19. RRIRRRPPRLPRPRPRPQTWPRP  0.345
20. RRIRWRPPRLPRPRPRPRFFPRP  0.326
21. RRIRWRPPRLPRPRPRPKNSPRP  0.318
22. RRIRGRPPRLPRPRPRPFDEPRP  0.294
23. RRIRLRPPRLPRPRPRPNWRPRP  0.292
24. RRIRTRPPRLPRPRPRPLWAPRP  0.277
25. RRIRDRPPRLPRPRPRPTCDPRP  0.224
26. RRIRVRPPRLPRPRPRPGSCPRP  0.216
27. RRIRKRPPRLPRPRPRPGANPRP  0.179
28. RRIRKRPPRLPRPRPRPTTMPRP  0.171
29. RRIRKRPPRLPRPRPRPIIPPRP  0.152
30. RRIRHRPPRLPRPRPRPRSWPRP  0.129
31. RRIRARPPRLPRPRPRPVGPPRP  0.124
32. RRIRNRPPRLPRPRPRPLVWPRP  0.124
33. RRIRVRPPRLPRPRPRPGWWPRP  0.115
34. RRIRGRPPRLPRPRPRPRNDPRP  0.113
35. RRIRDRPPRLPRPRPRPDSSPRP  0.109
36. RRIRHRPPRLPRPRPRPPEIPRP  0.0979
37. RRIRCRPPRLPRPRPRPIRIPRP  0.0952
38. RRIRERPPRLPRPRPRPNLFPRP  0.0891
39. RRIRHRPPRLPRPRPRPADWPRP  0.0838
40. RRIRNRPPRLPRPRPRPLIWPRP  0.0774
41. RRIRARPPRLPRPRPRPFLGPRP  0.0605
42. RRIRIRPPRLPRPRPRPTRMPRP  0.0519
43. RRIRGRPPRLPRPRPRPWTSPRP  0.0439
44. RRIRYRPPRLPRPRPRPATCPRP  0.0415
45. RRIRMRPPRLPRPRPRPTVSPRP  0.0176
46. RRIRYRPPRLPRPRPRPSSEPRP  0.0163
47. RRIRKRPPRLPRPRPRPTVLPRP  0.0143
48. RRIRVRPPRLPRPRPRPHVEPRP  0.0127
49. RRIRWRPPRLPRPRPRPWWDPRP  0.0125
50. RRIRGRPPRLPRPRPRPHEQPRP  0.0117
51. RRIRQRPPRLPRPRPRPKVGPRP  0.011
52. RRIRLRPPRLPRPRPRPVWTPRP  0.00633
53. RRIRMRPPRLPRPRPRPFQYPRP  0.00421
54. RRIRARPPRLPRPRPRPCHYPRP  -0.00197
55. RRIRNRPPRLPRPRPRPCPHPRP  -0.01
56. RRIRYRPPRLPRPRPRPIGLPRP  -0.0167
57. RRIRHRPPRLPRPRPRPECFPRP  -0.0176
58. RRIRERPPRLPRPRPRPQGCPRP  -0.0179
59. RRIRWRPPRLPRPRPRPDRQPRP  -0.018
60. RRIRYRPPRLPRPRPRPEMYPRP  -0.0203
61. RRIRQRPPRLPRPRPRPFCRPRP  -0.0325
62. RRIRKRPPRLPRPRPRPYWIPRP  -0.0363
63. RRIRIRPPRLPRPRPRPYKPPRP  -0.0367
64. RRIRSRPPRLPRPRPRPENDPRP  -0.0386
65. RRIRRRPPRLPRPRPRPDRYPRP  -0.0438
66. RRIRIRPPRLPRPRPRPYNGPRP  -0.0564
67. RRIRQRPPRLPRPRPRPTLKPRP  -0.0628
68. RRIRERPPRLPRPRPRPMKGPRP  -0.0658
69. RRIRPRPPRLPRPRPRPQSSPRP  -0.0675
70. RRIRFRPPRLPRPRPRPTVMPRP  -0.0812
71. RRIRQRPPRLPRPRPRPGNMPRP  -0.0822
72. RRIRHRPPRLPRPRPRPQCSPRP  -0.0894
73. RRIRHRPPRLPRPRPRPFRIPRP  -0.127
74. RRIRERPPRLPRPRPRPEDPPRP  -0.134
75. RRIRVRPPRLPRPRPRPHPMPRP  -0.15
76. RRIRQRPPRLPRPRPRPHLEPRP  -0.15
77. RRIRYRPPRLPRPRPRPKCKPRP  -0.161
78. RRIRKRPPRLPRPRPRPQMYPRP  -0.192
79. RRIRERPPRLPRPRPRPCGYPRP  -0.239
80. RRIRVRPPRLPRPRPRPLNSPRP  -0.298
81. RRIRYRPPRLPRPRPRPFRGPRP  -0.303
82. RRIRQRPPRLPRPRPRPHISPRP  -0.312
83. RRIRCRPPRLPRPRPRPCWVPRP  -0.4
84. RRIRDRPPRLPRPRPRPPMYPRP  -0.405
85. RRIRLRPPRLPRPRPRPYNPPRP  -0.454
86. RRIRRRPPRLPRPRPRPSMNPRP  -0.467
87. RRIRYRPPRLPRPRPRPSLMPRP  -0.556
88. RRIRTRPPRLPRPRPRPYIIPRP  -0.59
89. RRIRIRPPRLPRPRPRPNMWPRP  -0.59
90. RRIRYRPPRLPRPRPRPGTHPRP  -0.678
91. RRIRYRPPRLPRPRPRPRHIPRP  -0.767
